This is an account of results in PMC12538065.

The test system of this series is Zn(II)-bound Fur homodimer (Escherichia coli (expressed in MC4100)). The series can be described thus: HinfI restriction site protection. The following applies: 0.5 uM (as monomer) sufficient to protect, not a Kd, 2 mM Mg2+, 3.2 nM pUC19-iuc, 20 mM Tris pH 8.0, 150 mM NaCl, 2 mM MgCl2, 0.1 mg/ml BSA, 10 min at room temperature, then HinfI (1 unit) 37 C 10 min.

With pUC19-iuc (Fur-box of iucABCD promoter), the binding is 0.5 µM.
